From the supplement of paper PMC9170038

Tested on: MS2 coat protein
Assay: apparent KD of MS2 coat protein; designed switch direction (-1 OFF switch, 1 ON switch): -1; higher = weaker reporter binding
In short: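 Designed RNA switches with common flanks were transcribed on Illumina chips by stalled E. coli RNA polymerase and titrated with SNAP-549-labelled MS2 coat protein, from 0.7 or 1.5 nM doubling to 3 µM, in Tris-HCl pH 7.5 buffer with KCl, MgCl2, BSA, DTT, tRNA and Tween-20. Steps lasted 0.8–1.5 h (lowest) to 10–20 min (highest). Titrations ran without input, with 200 uM small-molecule ligand, or with an oligonucleotide input. Normalised cluster fluorescence was curve-fitted, and apparent KD is the per-design median over clusters.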

[1] = input ligand: microRNA oligo, concentration not stated
[2] = Eterna round: R95, input ligand: FMN 200 uM
[3] = Eterna round: R95, input ligand: microRNA oligo, concentration not stated
[4] = Eterna round: R95, input ligand: none

Row | Sequence | apparent KD of MS2 coat protein (input ligand: FMN 200 uM) [nM] | apparent KD of MS2 coat protein (input ligand: none) [nM] | apparent KD of MS2 coat protein [1] [nM] | apparent KD of MS2 coat protein [2] [nM] | apparent KD of MS2 coat protein [3] [nM] | apparent KD of MS2 coat protein [4] [nM]
1 | UUUUUACAUGAGGAUCACCCAUGUGAGGAUAUGGAGCGCGACCGCGCGGUCGCGUACACCAGAAGGCGCAUGAU [1st #77] (Eterna round: R97, puzzle: Exclusion 1) | 243 | 51.7 | – | – | – | –
2 | UAUAUAUAGUAAGGAUAUGUAUUAAUUUUAUCAACAGAAGGUACUGACAUGAGGAUCACCCAUGUUUUAGUGUGGGCAUGUAGA [JMF's solution 92] (Eterna round: R96, puzzle: Exclusion NG 1) | – | – | 65.2 | – | – | –
3 | AGUACUGACACGUUGGUGUUAGUACAAUAAGCUUGUGAUACAUGAGGAUCACCCAUGUCCUCAUAAGCUCGUCUUAU [salish99_TOv2_r2_093] (puzzle: Sensor v3, turn-off variant 2) | – | – | – | 26.1 | 881 | 21.1
4 | AUUGUUUGAUACCUCUAAUACAUGAGGAUCACCCAUGUUAUCGAGGAUAUGCAUUAGAGUGGUUAGCAGAAGGCGAAGUAAUUG [JR_ExcNG3_Sub030] (Eterna round: R96, puzzle: Exclusion NG 3) | 18.5 | 17.1 | 14.2 | – | – | –
5 | GUGUGUUGAUUAGGAUAUGCUCUAAGCAAUCGGGCAGAAGGAGUUAGACAUGAGGAUCACCCAUGUAAAUAUCGGAUCCCAACG [Eternabot solution 17] (Eterna round: R96, puzzle: Exclusion NG 1) | 18.6 | 19.3 | 16.2 | – | – | –
6 | GAGUGACAUGAGGAUCACCCAUGUGAGGAUAUGCGAUGGACCAAAUUAACAAUAGAAGGCAGAAGGCGCAUAAA [Exclusion 1 V9] (puzzle: Exclusion 1) | – | – | – | 41.4 | 34.8 | 41.1
7 | CUUUUGUGAGGAUAUUAGUAGUAAAUAAAUAAAUUUACUACUGAGAAGGCACAUGAGGAUCACCCAUGUUCCUC [salish99_ex4_r3_060] (puzzle: Exclusion 4) | – | – | – | – | 33.7 | –
8 | UUUUAACAUGAGGAUCACCCAUGUGAGGAUAUCGAAAUUUAUAUUUAUAUUUAUAAAACGAGAAGGCACAUUUU [JMF 91] (puzzle: Exclusion 1) | – | – | – | – | 113 | –
9 | AAUUUAUGAGGAUAUACAGUGUAAAACAUGAGGAUCACCCAUGUUCUUCAAUUAGUAUUUGUAGAAGGCAUAUGUA [JR_Ex5_Sub095] (Eterna round: R97, puzzle: Exclusion 5) | 17.2 | 17.1 | – | – | – | –
10 | GACCGGACGUGGUCUGGUAACAUGAGGAUCACCCAUGUAGGUCUAAGAACAUGCCUUUUGCACGCUCGUCUUAUAUA [JR_SV3TOV1_Sub063] (puzzle: Sensor v3, turn-off variant 1) | – | – | – | 54.7 | 38.2 | 63.8
11 | AAAACCAGAGGAUAUGCGCAUAGAUAAGACUUUGUUUCUUAACAUGAGGAUCACCCAUGUAGAAGGCUGUAAAA [Ex2 #71] (Eterna round: R97, puzzle: Exclusion 2) | 20.6 | 22 | – | – | – | –
12 | AUCAUAACCUAGGAUAUGUAGCAGCCCGCAGCGACAGAAGGAGGUACAUGAGGAUCACCCAUGUCCACUCCCGU [EX6 C.11] (Eterna round: R97, puzzle: Exclusion 6) | 12.4 | 11.8 | – | – | – | –
13 | GAACAAGCGUGAGGCUCGUCUUAAAGAGCCUCAUGAAAAACAUGAGGAUCACCCAUGUAAAAUGAUCGAAAGAUCAA [Mat - Sensor v2 - var 2 - Mod - D131] (Eterna round: R96, puzzle: Sensor v2, turn-off variant 2) | 14.9 | 16.9 | 12.7 | – | – | –
14 | UACAUGAGGAUCACCCAUGUUUUGUCGUGUAUGGUAUUUAUCUAGGAUAUCAAUCUAUUUAGUUAUGAGAAGGAGAAUAUUAAU [JMF's solution 54] (Eterna round: R96, puzzle: Exclusion NG 3) | 39.1 | 37.8 | 29.9 | – | – | –
15 | GGAAAACAUGAGGAUCACCCAUGUAAGGAUAUGCAAAAGGAUAUAGAAGGAAAAAAAAGCAGAAGGUACAAAGG [salish99-ex1-21] (Eterna round: R96, puzzle: Exclusion 1) | – | – | 34 | – | – | –
16 | ACAUGAGGAUCACCCAUGUCGGGCUGGUCCGCUCCGGCUGUUGAGGAUAUAGCCCGGUAUCCGCGCUAGAAGGUGAGGGCCGGC [Aenatbe mod 29] (Eterna round: R96, puzzle: Exclusion NG 3) | 35.6 | 31.4 | 29.5 | – | – | –

Row | Sequence | apparent KD of MS2 coat protein (input ligand: FMN 200 uM) [nM] | apparent KD of MS2 coat protein (input ligand: none) [nM] | apparent KD of MS2 coat protein [1] [nM] | apparent KD of MS2 coat protein [2] [nM] | apparent KD of MS2 coat protein [3] [nM] | apparent KD of MS2 coat protein [4] [nM]
17 | CGGUAGUAUGUAGGAUAUCGGUCAGUUUCUGAUCGAGAAGGACAUGAGGAUCACCCAUGUAAAACGACCGGUUUCUGGUUGCCG [JL ENG1 3.55] (Eterna round: R96, puzzle: Exclusion NG 1) | 15.4 | 15.6 | 12 | – | – | –
18 | GUUUUGUGAGGAUAUCCCUAUCAUCUAGCUGACUAGAUGGUGGAGAAGGCACAUGAGGAUCACCCAUGUGGGAG [Eternabot (L1) Solution 3] (Eterna round: R97, puzzle: Exclusion 4) | 111 | 90.1 | – | – | – | –
19 | GCAUCGUAAGGAUAUCAGCCGGUGGUAUACCGAAACAGGGUUGAGAAGGUACAUGAGGAUCACCCAUGUGAUUU [Eternabot (L2) Solution 37] (Eterna round: R97, puzzle: Exclusion 4) | 203 | 58.6 | – | – | – | –
20 | UACCUGAGGCUUUGCUUUAGGCUUACAUGAGGAUCACCCAUGUAGGAUAUGGUAGGCAAAGCUUACCAGAAGGACAUGGAAAUU [Mat - Exclusion NG 3 - Mod of JL - D21] (Eterna round: R96, puzzle: Exclusion NG 3) | – | – | 13.2 | – | – | –
21 | AAUGCUGGUGUGAGGAUAUCAGCUGAAGAACAGAAUGAGAAGGCACAUGAGGAUCACCCAUGUAAAAGAAUAAA [Atbelaqu] (Eterna round: R97, puzzle: Brourd's mod of Exclusion 4) | 35.9 | 25.6 | – | – | – | –
22 | CACCUGAAGUCAGGAUAUCAUACAUGAGGAUCACCCAUGUAAUAAAUGAGAAUUUCGAAUGUAAUUGAGAAGGGACAAUAAGGC [Ostricism 97 - Jieux - Exclusion NG 2] (Eterna round: R96, puzzle: Exclusion NG 2) | 93.2 | 44.2 | 34 | – | – | –
23 | UAGGUGUGAGGAUAUGGUAAAGAUAAGAUGAUGAAAGAACUCCAGAAGGCACAUGAGGAUCACCCAUGUAGAUG [JL-ex4-2.16 Jieux mod] (puzzle: Exclusion 4) | – | – | – | – | 33.3 | –
24 | GGACAUGCAGGAUAUGUAAAAUUUGACAUGAGGAUCACCCAUGUAGAUCCUGAAUUUCCUGCAGAAGGGCAUGUCC [Mat - Exclusion 5 - Eli Mod - D18] (Eterna round: R97, puzzle: Exclusion 5) | 396 | 109 | – | – | – | –
25 | UUUUGAAAGUGAGGAUAUGACAUGAGGAUCACCCAUGUAAAGGGAGUUGACUAUAUAGAAAGAUAUCAGAAGGCACAAAUGUUU [JR_ExcNG2_Sub002] (Eterna round: R96, puzzle: Exclusion NG 2) | 839 | 321 | 237 | – | – | –
26 | UGUUGUUACGCAGGAUAUUGCCAACAGGCAGUAGGAUAUCCGAAAGGAGAAGGACCGCCAACAGGCGAGAAGGGCGGGUUAACA [pwkr exNG2 2xF7 2xFMN.10] (Eterna round: R96, puzzle: Exclusion NG 2) | 370 | 16.3 | 227 | – | – | –
27 | UAACAGCAAGGAUAUACGGGCUGUGCUUUUCAUUUCUUACAACAUGAGGAUCACCCAUGUAGAAGGUGCAACAA [Ex2 #6] (Eterna round: R97, puzzle: Exclusion 2) | 54.4 | 24.8 | – | – | – | –
28 | UUUUCUUUUGUGAGGAUAUACUUCUUUUUCUUUUUGUAGAAGGCACAUGAGGAUCACCCAUGUUUUCUUUUCUC [JR_BME4_Sub028] (puzzle: Brourd's mod of Exclusion 4) | – | – | – | – | 13.7 | –
29 | ACUUAUAGAGGAUAUACAGUUUAUUACAUGAGGAUCACCCAUGUUCUUCAAUGUAUAUAAGUAGAAGGCUAAGGAA [EX-5 Malc#5] (Eterna round: R96, puzzle: Exclusion 5) | – | – | 33.7 | – | – | –
30 | AGAAAGUCAGGAUAUCGAAGGUAGUGGAGAGGAGUGUGGUACGAGAAGGGACAUGAGGAUCACCCAUGUAGGAG [JR_Exclusion4)Sub007] (puzzle: Exclusion 4) | – | – | – | – | 31.1 | –
31 | CUUUUGUGAGGAUAUCAGUAGUAAAAAAAUAAAAUUACUACUGAGAAGGCACAUGAGGAUCACCCAUGUUCCUC [salish99_ex4_r3_009] (puzzle: Exclusion 4) | – | – | – | 257 | 39.7 | 38.4
